Measurements published in US20030092068A1 (ASAHI KASEI, published 2003).

Target: c-Kit (CD117) on human undifferentiated blood cells (UT-7, M07e, cord blood-derived CD34 positive cells) (human, UniProt P10721 26-976)
Experiment: cell-based or functional assay

Chain of c-Kit (CD117) on human undifferentiated blood cells (UT-7, M07e, cord blood-derived CD34 positive cells) (P10721 26-976): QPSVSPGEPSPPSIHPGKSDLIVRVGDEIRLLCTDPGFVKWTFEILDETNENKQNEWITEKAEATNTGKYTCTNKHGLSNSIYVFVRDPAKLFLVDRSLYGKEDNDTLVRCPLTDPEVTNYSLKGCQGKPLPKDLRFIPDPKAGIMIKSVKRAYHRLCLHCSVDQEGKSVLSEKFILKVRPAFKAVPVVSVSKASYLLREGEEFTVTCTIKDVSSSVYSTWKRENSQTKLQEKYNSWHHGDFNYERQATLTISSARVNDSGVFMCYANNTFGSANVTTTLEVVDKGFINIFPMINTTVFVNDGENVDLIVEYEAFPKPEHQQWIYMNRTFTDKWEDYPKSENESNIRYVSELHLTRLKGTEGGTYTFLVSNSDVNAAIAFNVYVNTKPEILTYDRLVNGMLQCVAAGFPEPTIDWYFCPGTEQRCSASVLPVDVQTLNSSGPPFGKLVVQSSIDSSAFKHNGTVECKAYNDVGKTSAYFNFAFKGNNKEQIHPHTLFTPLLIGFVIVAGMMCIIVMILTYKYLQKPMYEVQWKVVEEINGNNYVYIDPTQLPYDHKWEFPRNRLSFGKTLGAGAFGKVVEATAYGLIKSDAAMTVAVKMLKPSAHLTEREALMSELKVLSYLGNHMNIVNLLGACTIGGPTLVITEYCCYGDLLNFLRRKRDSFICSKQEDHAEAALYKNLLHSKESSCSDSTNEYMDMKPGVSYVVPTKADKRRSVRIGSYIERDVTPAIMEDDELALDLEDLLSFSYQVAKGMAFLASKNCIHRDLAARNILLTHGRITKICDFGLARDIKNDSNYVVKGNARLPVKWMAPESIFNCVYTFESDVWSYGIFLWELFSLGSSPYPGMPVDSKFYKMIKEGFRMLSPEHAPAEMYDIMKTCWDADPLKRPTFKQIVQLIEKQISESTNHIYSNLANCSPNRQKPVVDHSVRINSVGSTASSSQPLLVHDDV

B1: polypeptide (CARex-mSCF), being CAR extracellular region linked with mouse SCF (other)
chain: LSITTPEEMIEKAKGETAYLPCKFTLSPEDQGPLDIEWLISPADNQKVDQVIILYSGDKIYDDYYPDLKGRVHFTSNDLKSGDASINVTNLQLSDIGTYQCKVKKAPGVANKKIHLVVLVKPSGARCYVDGSEEIGSDFKIKCEPKEGSLPLQYEWQKLSDSQKMPTSWLAEMTSSVISVKNASSEYSGTYSCTVRNRVGSDQCLLRLNVVPPSNKAHHHHHHSASASAKEICGNPVTDNVKDITKLVANLPNDYMITLNYVAGMDVLPSHCWLRDMVIQLSLSLTTLLDKFSNISEGLSNYSIIDKLGKIVDDLVLCMEENAPKNIKESPKRPETRSFTPEEFFSIFNRSIDAFKDFMVASDTSDCVLSSTLGPEKDSRVSVTKPFMLPPVA
GFP positive cell ratio, M07e cells, Ax1CAgfp at MOI 100 (adenovirus alone 0.5%): 82%
